assay: yeast display, Sf9 membrane polyspecificity reagent, FACS + sequencing; frameworks hold sequencing errors
How it was run: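 In a synthetic yeast display library (Saccharomyces cerevisiae BJ5465), nanobody expression was induced with galactose for 36–48 hours. FACS gates were set low and high (top ~1%) using anti-HA fluorescence for expression and streptavidin fluorescence for binding of the Sf9 membrane reagent. Each polyreactivity label is drawn from the gate of origin.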

Sequence	polyreactivity (PSR sort gate)
QVQLVESGGGIVQAGGSLRLSCPASGFIGVNGMGWYIQAPGKERELVAAISSGGSTNYADSVKGRFTMSRDNAKNTVYLQMNSLKPEDTAVYYCAKDFLLDSFYHTYRYRYDYWGQGTQVTVSS	low polyreactivity
QVQLVESGGGLVQAGGSLSLSCAASGSTFKHYAMGWYRQAPGKERELVAAISSRGGSTHYADSVKGRFTISRDNAMNTVYLQMNSLKPEDTAVYYCARDTDPQSSRSSDYDYWGQGTHVTVSS	low polyreactivity
QVQLVESGGGLVQAGGSLRLSCAASGFIFYYYTMGWYRQAPGKEREFVAAISSSGTITYYADSVKGRFTISRDNAKNTVYLQMNSLKPEDTAVYYCNAELYYPYEFWRFSGYDYWGQGTQVTVSS	low polyreactivity
QVQLVESGGGLVQAGGSLRLSCAASGFTFKWYTMGWYRQAPGKERELVAGISRRGGSTYYADSVKGRFTISRDNAKNTVYLQMNSLKPEDTAVYYCAAEFPTVYFPWSEMDYWGQGTQVTVSS	high polyreactivity
QVQLVESGGGLVQAGGSLRLSCAASGSIFIQNGMGWYRQAPGKERELVASSASGGSTNYADSVKGRYTISRDNAKNTVYVQMNSLKPEDTAVYYCAARVWYSSDGSTYPYTRYDYWGQGTQVTVSS	high polyreactivity
QVQLVESGGGLVQAGGSLRLSCAASGSIFNTYAMGWYRQAPGKERELVAAITWSGGSTYYADSVKGRFTISRDNAKNTVYLQRNSLKPEDTAVYDCAARQRRQSYWGQGTQVTVSS	high polyreactivity
QVQLVESGGGLVQAGGSLRLSCAASGRTFYRNAMGWYRQAPGKERELVAAITSGGSTYYADSVKGRFTISRDNAKNTVYLQINSLKPEDTAVYYCAKRKGWVPSRSWTPAFWGQGTQVTVSS	low polyreactivity
QVQLGESGGGLLPAGGSLGLSCAASGSTFGYYAMGWDRQAPGKERELVAAINSGDSTSYADSVKGRFTISRDNAKTTLYLQMNSMKPEDTAVYYCAVRPRRHQYGYWGQGTQVTLSS	low polyreactivity
QVQLVESGGGLVQAGGSLRLSCAASGLIFKGYDMGWYRQAPGKERELVAAISSGSTNYADSVKGRFTISRDNAKNTGYLQMNSLKPEDTAVYYCNADLGRATFYQRVFIERGGYWGQGTQVTVSS	low polyreactivity
QVQLVESGGGLVQAGGSLRLSCAASGSILRQYAMGWYRPAPGKERELVAAINSGGSTNYADSVKGRITISRDNAKNTVYLQMNSLKPEDTAVYFCAADWSLYSHEFDYWGQGTQVTVSS	high polyreactivity
QVQLVESGGGLVQAGGSLRLSCAASGITFEVYAMGWYRQAPGKERELVAVITSVGSTNYADSVKGRFTISRDNAKNTVYLQMNSLKPEDTAVYYCASEKWTVRRFNPYTYYRYDYWGQGTQVTVSS	low polyreactivity
QVQLVESGGGLVQAGGSLRLSCAASGFIFVRYAMGWYRQAPGKERELVAAISSSGGTTNYADSVKGRFTISRDNAKHTVYLQMNSLKPEDTAVYYCNADYYWFFDFFDYDYWGQGTQVTVSS	low polyreactivity
QVQLVESGGGLVQAGGSLRLSCAASGFTFYHNAMGWYRQAPGKERELVATITARGGRTYYADSVKGRFTISRDNAKNTVYLQMNSLKPVDTAVYYCNVKASRGYTYEYDYWGQGTQVTVSS	high polyreactivity
QVQLVESGGGLVQAGGSLRLSCAASGSTFYGYTMGWYRQAPGKERELVAAISSSGSSTYYADSVKGRFTISRDNAKNTVYLQMNSLKPEDTAVYYCAAATRVPGHGSTSYYYWGQGTQVTVSS	high polyreactivity
QVQLVESGGGLVQAGGSLRLSCAASGNTFGRYAMGWYRQAPGKERELVASIRGSSVRTFYADSVKGRFTISRDNAKNTVYLQMNSLKPEDTAVYYCAKRGYAYPSSYDSWGQGTQVTVSS	high polyreactivity
QVQQQESGGGLVQAGGSLRLSCAASGTIFQLTVMGRYRQAPGQERELVASIDYGGNTNYADSVNGRFTISRDNAKNTVYLQMNSLKPEDTAVYYCAASSDSWTTHPYWGQGTQVTVSS	low polyreactivity
QVQLVESGGGLVQAGGSLRLSCAASGRSIWYYTMGWYRQAPGKERQFFAAITTSGGSTTYADSVKGRYTISRDTAKNTVFLQRNSLKPEDSAVYYCAARVYHGKSKYDYWGQGSQVTVSS	high polyreactivity
QVQLVESGGGLVQAGGSLRLSCAASGSIFSSYVMGWYRQAPGKERELVAAMSRSGGSTYYADSVKGRFTISRDNAKNTVYLQMNSLKPEDTAVYYCAADWTRGSPGMDYWGQGTQVTVSS	high polyreactivity
QVQLVESGGGLVQAGGSLRLSCAASGLTFNYYAMGWYRQAPGKERELVAAISSSTGSTYYADSVKGRFTISRDNAKYTVYLQMNSLKPEDTAVYYCAAVRTKAYVSRTSQSGYWGQGTQVTVSS	high polyreactivity
QVQLVESGGGLVQAGGSLRLSCAVSGRIFRRNVMGWYRQAPGKDRELVAGISDSGDSTYYADSVKVRFTISRDNAKNTVYLQMNSLKPEDTAVYYCNARYSTTYYGTIYRGMDYWGQGTQVNVSS	high polyreactivity

Sequence	polyreactivity (PSR sort gate)
QDQLVESGGGLVQAGGSLRLSCAASGFNFMSKGMGWYRQAHGKETEFVAVITSSTGSTSYADSVKGRFTISRDNAKNTVYLQMNSLKPEDTGVFYCAADAYYYYAGGHYYWGQGTQVTVSS	low polyreactivity
QVQLVESGGGLVQAGGSLRLSCAASGFTFFKYAMGGYRQAPGKERELVAAITRNGGRTYYADSVKGRFTISRDNAKNTVYLHMNSLKPEDTAVYYCNAASVNGGRDFDYWGQGTQVTVSS	high polyreactivity
QVQLVESGRGLVQAGGSLRLSCAASGFTFGYYAMGWYRQAPGKERELVASISRSGGSTNYADSVKGRFTISRDNAKNTVYLQMNSLKPEDTAVYYCNKRSYWYQGRFDYWGQGTQVTVSS	high polyreactivity
QVQLVESGAGLVQAGGSLRLSCAASGITFASYGMGWYRQAPGKERELVAAISQRGGRTYYADSVKGRFTISRDNAKNTVYLQMNRLKPEDTAVYYCAARTYTITGRSPQYLNAYGYWGQGTQVTVSS	high polyreactivity
QVQLVESGRGLVQAGGSLRLSCAASGSIFNCYDMGWYRQAPGKERELVADIRSAGSTYYADSVKGRFTISRDNAKNTVYLQMNSLKPEDTAVNYCAAEAPVQPFYVFNTGIYELDYWGQGTQVTVSS	low polyreactivity
QFQLVESGGGLVQAGGSLRLSCAASGITFSNYALGWYRQAPGKERELVAAISKRGGSTYYADSVKGRFTISRDNAKTTVDLQMNSLKPEDTAVYYCAADAYNPPYWVDPYDYWGQGTQVTVSS	high polyreactivity
QVQLVESGGGLVQAGGSLRLICAASGSIFRLYAMGWYRPAPGKEREFVARIRWRGGSTNYADSVKGRFTISRDNAKNTVYLQMNCLKPVDTAVYYCAAKQGTVRAHTYVAWYDYWGQGTQVTVSS	high polyreactivity
QVQLVESGGGLFQAGGSLRLSCAATGRIFYSNAMGWYRQAPGKERELVAAINSRGGRTYYADSLKGRFTISRDNAKNTVYLQMNSLKPEDTAVYYCAAPTGPKGYYSDRGDSWGQGTQVTVSS	high polyreactivity
QVQLVESGGGLVQAGGSLRLSCAASGITFKYYAMGWYRQAPGKERELVAAITRGGSTYYADSVKRRFTISRDNAKTTVYLQMNSLKPVDTAVYYCNKARTYELYWGQGTQVTVSS	high polyreactivity
QVQLVESGGGLVQAGGSLRLSCAASGSIFFYAMGWYRQAPGKERELVAGITSGGSTYYADSVKGRFTISRDNAKNTVYLQMNSLKPEDTAVYYCAARRRGYKYTYNSWGQGTQVTVSS	high polyreactivity
QVQLVESGGGLVQAGGSLRLSCAASGIFYRYAMGWYRQAPGKEREFVAAISSTGGSTYYADSVKGRFTISRDNAKNSVYLQMNSLKPEDTAVYYCAKRGSRSGRSDYWGQGTQVTVSS	low polyreactivity
QVQLQESGGGLVQAGGSLRLSCAASGTISDSGLMGWYRQAPVKERELVAGIRSGGITNYADSVKGRFTISRDNAKNTVYLQMNSLKPEDTAVYWGQGTQVTVSS	low polyreactivity
QVQLVESGGGLVQAGGSLRLSCAASGFTFRYYAMGWYRQAPGKERELVATITGYGGSTYYADSVKGRFTISRDNAKNTVYLQMNSLKPEDTAVYYCNTVWYTDVRYTRFYYWGQGTQVTVSS	high polyreactivity
QVQLEESGGGLVQAGGSLRLICAASGIIFLFYALGWYRQAPGKERELVASITWSGGSTYYADSVKGRFTISRDNAKNTVYLQMNSLKPEDTAVYYCAASVKIISYLVHSEFLGGELDYWGQGTHVTVSS	low polyreactivity
QLQLVESGGGLVQAGGSLRLSCAASGRIFHSYTMGCYTQAPGKHRELVSAITWSCGSTYYADSVKGRLTISRDHAKNTVYFQMNSLKAEDTSVFYCNAKRRVFRLSVTSAFDYWGQGTQVTVSS	high polyreactivity
QVQLVESGGGLVQAGGSLRLSCAASGRIFDAYAMGWYRQAPGKERELLAAITQSGGSTFYADSVKGRFTISRDNAKNTVYLQMNSLKPEDTAVYYCAKDKFWFRVDGHYRMDYWGQGTQVTVSS	low polyreactivity
QVQLVESVGGLVQAGGSLRLSCAASGRTFYTNAMGWYRQAPGKERELVAAITRGTSTSYADSVKGRFTISRDNAKNTVYLQMNSLKPEDTAVYYCAARGTQYSPSKSWFYYWGQGTQVTVSS	high polyreactivity
QVQLVDSGGGLVQAGGILRLSCAASGSTFDVYAIGWYRQAPGKEWELVAAITWDGDRTYYADSVKGRFTISRDNAKNTVYLQMNSLKPEDTGVYYCNADEGGNYREDYWGQGTQVTVSS	low polyreactivity
QVQLVESGGGLVQAGGSLRLSCAASGRTVGSYVMGWYRHAPVKERELVATISRRGGTTYYADSVKARFTISRDNAKNTVYLQMNSLKPEDTAVYYCNRVIPLASYGYGYWGQGTQVTVSS	high polyreactivity
QVQLVESGGGLVQAGGSLRLSCAASGRIFQYYDMGWYRQAPGKERELVAAITFSGGSTYYADSVKGRFTISRDNAKNTVYLQMNSLKPEDTAVYYCARGYWVYYPDGDYWGQGTQVTVSS	low polyreactivity

Reference: the nanobody polyreactivity screen of Harvey et al. (2022)
